Results published in patent US20200087416A1 (Innovent, published 2020).
Residue numbers refer to the chain shown, from its start.

B1: ADI-10086 (antibody, human IgG2, kappa, V domains shown)
VH: QLQLQESGPGLVKPSETLSLTCTVSGGSIRSSAYYWGWIRQPPGKGLEWIGSINYRGSTYYNPSLKSRVTISVDTSKNQFSLKLSSVTAADTAVYYCARENSGVVPAAGPNWFGPWGQGTLVTVSS
VL: EIVLTQSPATLSLSPGERATLSCRASQSVSSYLAWYQQKPGQAPRLLIYDASNRATGIPARFSGSGSGTDFTLTISSLEPEDFAVYYCQQRRNWFTFGGGTKVEIKR
notes: IgG
B2: ADI-10090 (antibody, human IgG2, kappa, V domains shown)
VH: B1 VH with R30W, A33S, G37T, G114D
VL: B1 VL
notes: IgG
B3: Alirocumab (antibody, V domains shown)
VH: EVQLVESGGGLVQPGGSLRLSCAASGFTFNNYAMNWVRQAPGKGLDWVSTISGSGGTTNYADSVKGRFIISRDSSKHTLYLQMNSLRAEDTAVYYCAKDSNWGNFDLWGRGTLVTVSS
VL: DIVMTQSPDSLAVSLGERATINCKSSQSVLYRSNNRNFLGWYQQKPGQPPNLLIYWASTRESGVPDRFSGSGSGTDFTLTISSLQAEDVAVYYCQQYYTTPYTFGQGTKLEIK
B4: Lodelcizumab (antibody, V domains shown)
VH: QVQLVQSGAEVKKPGASVKVSCKASGYTFSTMYMSWVRQAPGQGLEWMGRIDPANEHTNYAQKFQGRVTMTRDTSISTAYMELSRLTSDDTAVYYCARSYYYYNMDYWGQGTLVTVSS
VL: QIVLTQSPATLSVSPGERATLSCRASQSVSYMHWYQQKPGQAPRLLIYGVFRRATGIPDRFSGSGSGTDFTLTIGRLEPEDFAVYYCLQWSSDPPTFGQGTKLEIK
B5: Bococizumab (antibody, V domains shown)
VH: QVQLVQSGAEVKKPGASVKVSCKASGYTFTSYYMHWVRQAPGQGLEWMGEISPFGGRTNYNEKFKSRVTMTRDTSTSTVYMELSSLRSEDTAVYYCARERPLYASDLWGQGTTVTVSS
VL: DIQMTQSPSSLSASVGDRVTITCRASQGISSALAWYQQKPGKAPKLLIYSASYRYTGVPSRFSGSGSGTDFTFTISSLQPEDIATYYCQQRYSLWRTFGQGTKLEIK
B6: ADI-02396 (antibody, human IgG2, kappa, V domains shown)
VH: B1 VH with R30S, A33S, N54Y, R56S, N101G, G114D
VL: B1 VL
notes: IgG; also called parent antibody

Biological target: T1, human PCSK9 (PCSK9 antigen, SEQ ID NO. 53) (human, UniProt A8T644 31-152; Q8NBP7 153-692, Biotin-labelled on amines in the MSD-SET and sorting experiments; positions not given.)
T1 construct: Biotin-labelled in MSD-SET; also called PCSK9-WT; PCSK9 protein
Assay: flow cytometry, PCSK9 left on CHO-LDLR cells (anti-His-FITC) after premix with 0.1 nM antibody

Binder | Fluorescence Signal Value
B1 | 6600
B2 | 6810
B3 | 7170
B4 | 8400
B5 | 7100

Biological target: T1, human PCSK9 (PCSK9 antigen, SEQ ID NO. …)
Assay: flow cytometry, PCSK9 left on CHO-LDLR cells (anti-His-FITC) after premix with 10 nM antibody

Binder | Fluorescence Signal Value
B1 | 5830
B2 | 5810
B3 | 5750
B4 | 7330
B5 | 6270

Biological target: T1, human PCSK9 (PCSK9 antigen, SEQ ID NO. …)
Assay: cell-based or functional assay

Binder | BODIPY-LDL uptake by HepG2 cells, fluorescence, 4.2 nM, replicate 1 | BODIPY-LDL uptake by HepG2 cells, fluorescence, 4.2 nM, replicate 2 | BODIPY-LDL uptake by HepG2 cells, fluorescence, 16.8 nM, replicate 1 | BODIPY-LDL uptake by HepG2 cells, fluorescence, 16.8 nM, replicate 2 | BODIPY-LDL uptake by HepG2 cells, fluorescence, 66.7 nM, replicate 1 | BODIPY-LDL uptake by HepG2 cells, fluorescence, 66.7 nM, replicate 2
B6 | 0.366 | 0.352 | 0.404 | 0.341 | 0.432 | 0.401
B3 | 0.364 | 0.37 | 0.396 | 0.392 | 0.686 | 0.716
B4 | 0.318 | 0.352 | 0.317 | 0.314 | 0.33 | 0.312

Biological target: T1, human PCSK9 (PCSK9 antigen, SEQ ID NO. …)
Assay: flow cytometry, PCSK9 left on CHO-LDLR cells (anti-His-FITC) after premix with 100 nM antibody

Binder | Fluorescence Signal Value
B1 | 5130
B2 | 4810
B3 | 4950
B4 | 8760
B5 | 5310

Biological target: T1, human PCSK9 (PCSK9 antigen, SEQ ID NO. …)
Assay: flow cytometry, PCSK9 left on CHO-LDLR cells (anti-His-FITC) after premix with 1 nM antibody

Binder | Fluorescence Signal Value
B1 | 6920
B2 | 6750
B3 | 6980
B4 | 8760
B5 | 6960

Biological target: T1, human PCSK9 (PCSK9 antigen, SEQ ID NO. …)
Assay: flow cytometry, PCSK9 left on CHO-LDLR cells (anti-His-FITC) after premix with 1000 nM antibody

Binder | Fluorescence Signal Value
B1 | 5270
B2 | 4820
B3 | 4930
B4 | 7330
B5 | 6040

Biological target: T1, human PCSK9 (PCSK9 antigen, SEQ ID NO. …)
Assay: BLI (ForteBio), IgG on AHQ sensor, 100 nM antigen

Binder | Kd [nM]
B6 | 9.5
B1 | 0.336
B2 | 0.352
B3 | 0.0301
B4 | 1.51
B5 | 0.386

Biological target: T2, murine PCSK-9 (murine, UniProt Q80W65 35-694)
T2 construct: also called mouse PCSK9
Assay: BLI (ForteBio), IgG on AHQ sensor, 100 nM antigen

Binder | Kd [nM]
B6 | 78.3
B1 | 0.607
B2 | 0.674
B3 | 2.66
B5 | 0.663
